Assay results from the nanobody polyreactivity screen of Harvey et al. (2022).

Assay: yeast display, Sf9 membrane polyspecificity reagent, FACS + sequencing; frameworks hold sequencing errors
How it was run: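 Synthetic nanobody libraries on Saccharomyces cerevisiae BJ5465 were galactose-induced for 36–48 hours, stained 1 hour at 4 °C with 10% biotinylated, detergent-solubilized Sf9 membrane reagent and enriched on streptavidin microbeads. FACS then separated cells into low and high (top ~1%) gates by anti-HA (expression) and streptavidin (reagent binding) fluorescence. Genes were colony-PCR amplified, MiSeq 2 × 250 sequenced and CDR-length filtered. A clone's polyreactivity label is that of its gate of origin.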

| Sequence | polyreactivity (PSR sort gate) |
| --- | --- |
| QVQRVESGGGLVQAGGSLRLSCAASGSIFYRNVMGWYRPAPGKERELVAAISSGTSTYYADSVKGRFTISRDNAKNTVYLQMTSLKPEDPAVYYCAAEGPHYYGQRWYYGVDYWGQGTQVTVSS | low polyreactivity |
| QVQRVESGGGLVQAGGSLRLSCAASGSNFDKNPMGWYRQAPGKEREVVAAISRSGGSTNYADSVKGRFTISRDNAKTTDFLLMYSVKPEDTAVYYFAAQSRYWTYDSWGQGTQVNVSS | high polyreactivity |
| QVQRVESGGGLVQAGGSLRLSCAASGSTFLVNGMGWNRPAPGKERELVASITRDSSTYADSVKGRFTISRDNAKNTVYLQMNSLKPEDTAVYYCAATSRRRWSQQQGYGYYYWGQGTQVTVSS | high polyreactivity |
| QVQRVESGGGLVQAGGSLRLSCAASGYILPRYAMGWYIQAPGKERELVAAITSGGITSYADSVKGRFTISRDNAKNTVYLQMNSLKPEDTAVYYCAADWYVIYDYWGQGTQVTVSS | low polyreactivity |
| QVQRVESGGGLVQAGGSLRLSCAASGYTFEAYAMGWYRQAPGKERELVAAITINGGSTYYADSVKGRFTISRDNAKNTVYLQMNSLKPEDTAVYYCAADLFHRAGWYFAYGHWGLGTQVTVSS | low polyreactivity |
| QVQRVESGGGLVQAGGSLRLSCAASGYTFYFYDMGWYRQAPGKERELVAAITSSGGSTYYADSVKGRFTISRDNAKNTVYLQMNSLKPEDTAVYYCNALITYSSDYWGQGTQVTVSS | low polyreactivity |
| QVQRVESGGGLVQAGGSLRLSCAASGYTLGGYAMGWYRQAPGKERELVAAISSSGTSTYYADSVKGRFTISRDNAKNTVYLQMNSLKPEDTAVYYCNAYYLTYSAGDYWGQGTQVTVSS | low polyreactivity |
| QVQRVESGGGLVQAGGSLRLSCAASRITFSVNALRWYRHAPGKDRELVASISSGGSTNYADSVQGGFTISRDNAKNTVDLQMNSLKQEDTAVYYCNADVGFGSMDYCGQGTQVTVSS | low polyreactivity |
| QVQRVESGGGLVQAGGSLRLSCAASRITFTVNAMGWYRQAPGKERELVAAISWSGGSTYYADSVKGRFTISRDIAKNTVYLQMNSLKPEDTAVYYCNAVLYRFAYNYWGQGTQVTVSS | low polyreactivity |
| QVQRVESGGGLVQAGGSLRLSCAATGFTSGDYAMGWYRQAPGKERELVAAIDSDGSTNYADSVKGRFTISRDNAKNTVYLQMNSLKPEDTADYYCNAKRYGFFYWQGDYWGQGTQVTVSS | low polyreactivity |
| QVQRVESGGGLVQAGGSLRLSCDASGFTFVPYAMGWYRQAPGKERELVAAISWRRGSTYYADSVKGRFTISRDNAKNTVYLQMNSLKPEDTAVYYCARKGYHYSETSAIFALYDYWGQGTQVTVSS | high polyreactivity |
| QVQRVESGGGLVQAGGSLRLSCPASGFTFSRNVMGWYRQAPGKERELVADITLSGASTYYADSVKGRFTISRDNAKNTVYLQMNSLKPEDTAVYYCAADPYHWRWGWRHDYWGQGTQVTVSS | low polyreactivity |
| QVQRVESGGGLVQAGGSLRLTCAASGFTFVYYPMGWYRQAPGKVREWVAVISYSGTNTRYADSVKRRFTISRDNAKITVYLQMNSLKPEDTAVYYCAAEIYYVSWYDYWGQGTQVTVSS | high polyreactivity |
| QVQRVESGGGLVQAGGSLRLTCAASGRTFPGYAMGCYRQAPGKERELVAGISYRGGSTYYADSVKGRFTISRDNANNTVYLQMNSLKPEDSAVYYCALDYSRHKGDYWGQGTQVTVSS | low polyreactivity |
| QVQRVESGGGLVQARGSLRLSCAPSGSIFPYYAMGCYRPAPGKERELVAGISRRGGTTYYADSVKGRLTISRDNAKNTVYIQMHSLKPEDTAVYYCAARYGPYVDRYGYCGQGTQVTVSS | high polyreactivity |
| QVQRVESGLGLVQAGCSLRLTCAASGRIFDGYAMGWYRPARGKERELVATISSGGFTYYADSVKGSFTISRDNAKNTFYLQMNILKPEDTAVYYCAATPICSGGWGDYWGQGTQVTVSS | low polyreactivity |
| QVQRVESWGGLVQAGCRLRLSCAASGIFRRYAMGWYRQAPGKERELVAAISSSGGSTDYADSVKGRFTISRDNAKNTVYLLMNSLKPEDTAVYYCNAYDLHGWWSYAYDYWGQGTQVTVSS | high polyreactivity |
| QVQRVETGGGLVQAGGSLRLSSAASVLTFKWYAMGWYRQSPGKERELVAAISRDGSTYYGDSVKVRFTISRDNAKNTVYLQMNSLKPEDTAVYYCAADIWPSSLLADEYDYWGQGTQVTVSS | high polyreactivity |
| QVQSVESAGVLVQAGGSLRLSCAASGFTFTWYAMGWYRKAPGKERELVATISRSGGRTYYADSVKGRFTISRDNAKNTVYLQMNSLKPEDTAVYYCAADTRNSPRYDYWGQGTQVTVSS | high polyreactivity |
| QVQSVESCGGLVQAGRSLRLSCAPSGSIFADYAMGWYSQAPGKERELVAVISRRGGTTYYADSVKGRFTISRDNAKNSVYLQMNSLKPEDTAVYYCAARRSFNEYDYWGKGTQVTVSS | high polyreactivity |
| QVQVEESGGGFDQAGGSLRLSCAASGSIFYYNAMGWYRQAPGKERELVAAISGRTGSTYYADSVKGRFTISRDNAKNTVYLQMNSLKPEDTAVYYCNALFLGYYYYWGQGTQVTVSS | high polyreactivity |
| QVQVVDSGGGLVQAGGSLRLSCAASGRTFIGNAMGWYRQAPGKERELVATITTSAGTTYYADSVKGRITISRDNAKITVYVQMLSLKPEDTAVYYCAADASQSEGDYWGQGTQVTVAS | high polyreactivity |

| Sequence | polyreactivity (PSR sort gate) |
| --- | --- |
| QVQVVESGAGLVQAGGILRLRCASSGFILYPNAMGWYRQAPGKERELVAAITESDGITYYADSVKGRFTISRDNAKNTVYLQMNSLKPEDTAVYYCNTGFSYTYDYWGQGTQVTVSS | low polyreactivity |
| QVQVVESGGCLVQAGGSLRLSCAASGRMFRRYAMGWYRQAPGKERELVAAISSGGSTYYADSVKGRFTISRDNAKNTVYLQMNSLKPEDTAVYYCNAKVGAYLNYGYWGQGTQVTVSS | low polyreactivity |
| QVQVVESGGGIVHAGGSLRLSCAASGFIFLVNGMVWYRQAPGKERELVAAISFDGGSTYADSVKGRFTISRDNAKNTVYLLMTSLKPEDTAVFYCATDVRGVDGEDYSWGQGTQVTVSS | low polyreactivity |
| QVQVVESGGGLDQAGGSLRLSCAASGRIFFYYGMGWYRQAPGTERELVASISRGGSTTYADSVKGRFTISRDNAMKTVYLQMNSLKPEDSAVYYCARRYTQIYSSNYGYWGQGTEVTVSS | high polyreactivity |
| QVQVVESGGGLFQAGGSLRLSSAASGSIFARNALGWYRQAPGKERDLVAGITRSTGDTYYADSVKGRFTISRDNAKYTVSFQMNSLKQEDTAVYYCARDGRRTPYKYEYWGQGTQVTVSS | low polyreactivity |
| QVQVVESGGGLVQAGASLRLSCAASGRTCLHKAMGWYRQAPGKERELVAAIDSRGTTHYADSVKGRFTISRDNAKNTVYLQMNSLKPEDTAVYYCAARPTRGHWWYAYWGQGTQVTVSS | low polyreactivity |
| QVQVVESGGGLVQAGGSLGLSCAASGGTFGYYAMGWYRQAPGKERELVAAINRSDGGTYYADSVKGRFTISRDKAKNTVYLQMTSLKPEDTAVYYCNADDFYYDEPYDYWGQGTQVTVSS | low polyreactivity |
| QVQVVESGGGLVQAGGSLRLRCAASGRSFVRNAMGWYRQAPGKEREFVAAINSGGSTYYADSVKGRFTISRDNAKNTVYLQMNSLKPEDTAVYYCAAELHIYYSWYWYDYWGQGTQVTVSS | high polyreactivity |
| QVQVVESGGGLVQAGGSLRLSCAASGFISSYYAMGWYRQAPGKERELVAAITSGGRTYYADSVKGRFTISRDNAKNTVYLQMNSLKPEDTAVYYCAKYSRTKAFDYWGQGTQVTVSS | high polyreactivity |
| QVQVVESGGGLVQAGGSLRLSCAASGRIFAKYAMGWYIQAPGKERELVAAIDLSDGSTSYADSVKGRFTISRDNAKNTVYLQMNSLKPEDTAVYYCAKTWANVYAGAHDYWGQGTQVTVSS | low polyreactivity |
| QVQVVESGGGLVQAGGSLRLSCAASGRIFTGYAMGWYSQAPGTERELVAAISRGGSTNYADSVKGRFTISRDNAKNTVYLQMNSLKPEDTAVYYCAAGVHWDRGDYWGQGTQVTVSS | low polyreactivity |
| QVQVVESGGGLVQAGGSLRLSCAASGRTFGVYAMGWSRQAPGKERELVAVINRSGGSTYYADSVKGRFTISRDNAKYTVYLQMNSLNPEDTAVYSCDKASAYSAYDDHDDYWGHGTQVTVSS | high polyreactivity |
| QVQVVESGGGLVQAGGSLRLSCAASGSIFPFYVMGWYRQAPGKEREFVATISSRGGSTYYADSVKGRFTISRDNAKNTVYLQMNSLKPEDTAVYYCAAGWYRNDWGQRLHTYYYWGQGTQVTVSS | high polyreactivity |
| QVQVVESGGGLVQAGGSLRLSCAASGSTFVRNAMGWYRQAPGKDRELVAAITTSGARTYYADSVKGRFTISRDNAKHTVYLQMNSLKPEDTAVYYCAAEYKGRTYRFDYWGQGTQVTVSS | low polyreactivity |
| QVQVVESGGGLVQAGGSLRLSCAASGYIFDYYAMGWYRQAPGKERELVAAISSSGGTTYYADSVKGRFTISRDNAKNTVYLQMNSLKPEDTAVYYCAADAVLPRSDYWGQGTQVTVSS | high polyreactivity |
| QVQVVQSGGGLVQAGGSLSLSCAASGNTFYGYAMGWYRQAPGNESEFVASITLSGDSTYYADSVKGRFTISRDNAQNTVYLQMNSLKPEDTAVYYCAGVYTYPLGYYHYTYDYWGQGTQVTVSS | low polyreactivity |
| QVRLVESGGGLDQAGGSLPLSCAASGRTFEPNAMGWYRQAPGKERELVAAITSAGITHYADSVKGRFTISRDNAKNTVYLQMNSLKPEDTAVYYCRLQTGIIDRLRRYNYWGQGTQVTVSS | high polyreactivity |
| QVRLVESGGGLVKAGGSLRLSSAASGSTFWSYAMGCYRQATGKERELVAAISWSGDSTYYADSVKGRFTISRDNAKNTVYLQMNSLKPEDTAVYYCAADYVGGSYEYEYWGQGTQVTVSS | low polyreactivity |
| QVRLVESGGGLVQAGGSLRLSCAASAFTFDSYAMGWNRQAPGKERELVAAITWSGGSTYYADSVKGRFTISRDIAKNTVYFQMNSLKPEDTAVYYCNVDRYDGDYCGQGTQVTVSS | high polyreactivity |
| QVRLVESGGGLVQAGGSLRLSCAASGFIFWRNAMGWYRQAPGKERELVAAITSGGSTNYADSVKGRFTISRDNAKNTVYLQMNSLKPVDTAVYYCAARQWFSHRRWGGSRYDYWGQGTQVTVSS | low polyreactivity |
| QVRLVESGGGLVQAGRSLRLSCAASGRIFWNYAMGWYRQAPGKERELVATIDKSGGSTRYADSVKGRFTISRDTAKNTVYLQMNSLKPEDTAVYYCAARGPASRGFRGARSGLTFDYWGQGTQVTVSS | low polyreactivity |
